Laboratory results taken from patent US20170212117A1 (RANDOX LABORATORIES, published 2017).

T1: Recombinant human mature SLPI (Secretory leukocyte protease inhibitor)
T1 chain: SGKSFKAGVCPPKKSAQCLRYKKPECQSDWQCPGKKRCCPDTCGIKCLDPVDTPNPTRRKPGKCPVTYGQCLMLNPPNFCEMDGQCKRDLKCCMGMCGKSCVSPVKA

B1: C5.5 monoclonal antibody (supernatant of hybridoma clone C5.5) (antibody, V domains shown)
VH: EVQLVESGGGLVHPQGSLKLSCTASGFTFNTYDMNWVRQAPGKGLEWVARIRTKSYYYATYYADSVKDRFTISRDDSQTMLYLQLNNLKTEDTALYYCVRRSGNYGAMDYWGQGTSVTVSS
VL: QIVLTQSPAIMSASLGERVTMTCTASSSVSSSYLHWYQQKPGSSPKLWIYSTSNLASGVPARFSGSGSGTSYSLTISSMEAEDAATYYCHQYHRSPRTFGGGTKLEIK
notes: Used as cell-free hybridoma supernatant coated on the plate (capture antibody); also called C5.5 supernatant
B2: Human neutrophil elastase (human sputum derived NE, Elastin Products SE563) (protein)
chain: IVGGRRARPHAWPFMVSLQLRGGHFCGATLIAPNFVMSAAHCVANVNVRAVRVVLGAHNLSRREPTRQVFAVQRIFENGYDPVNLLNDIVILQLNGSATINANVQVAQLPAQGRRLGNGVQCLAMGWGLLGRNRGIASVLQELNVTVVTSLCRRSNVCTLVRGRQAGVCFGDSGSPLVCNGLIHGIASFVRGGCASGLYPDAFAPVAQFVNWIDSIIQ

Experiments:
[1] = biological target: T2, Recombinant human mature SLPI (Secretory leukocyte protease inhibitor) (human, UniProt P03973 26-132); test: sandwich ELISA, hybridoma supernatant as capture, biotinylated anti-SLPI PAb BAF1274 as detector
T2 construct: Bought from R&D Systems (product number 1274-PI-100); also called full length SLPI; full-length SLPI
Method: FIG. 4. Detection of C-SLPI in CF sputum samples. CF sputum samples were assayed via ELISA for the presence of C-SLPI using the supernatant from hybridoma clone C5.5 as a capture antibody. Standard curve generated by assaying known concentration of C-SLPI produced by incubation of recombinant SLPI with NE (A). C-SLPI concentrations in 63 sputum samples derived from CF patients as identified via ELISA using C5.5 as a capture antibody (B).
A Maxisorp plate (Nunc) was coated for 16 h at 4° C. with 100 μl/well hybridoma supernatant diluted 1:50 in Voller's reagent. Cell free hybridoma supernatants were acquired directly from individual cultures by centrifugation at 1,400 rpm for 5 min. The plate was blocked with 200 μl 1% BSA in PBST 0.05% (v/v) Tween 20 for 1 h at room temperature. Either a half concentration dilution series of 200 ng/ml to 3.125 ng/ml of both C-SLPI and SLPI (100 μl/well) in 1% BSA in PBST 0.05% (v/v) Tween 20 or CF sputum samples diluted 1:50 v/v in 1% BSA in PBST 0.05% (v/v) Tween 20 were added to the plate and incubated for 2 h at room temperature. Control wells received NE alone. […] The absorbance at 405 nm of wells was measured on a microtiter plate reader (Genios using Magellan software) and results were analyzed using GraphPad Prism version 6 (GraphPad Software).

[2] = biological target: T1, Recombinant human mature SLPI …

Binder	binding result [1]	SLPI cleavage by NE (Western blot) [2]
B1	no binding (tested: 200 ng/ml to 3.125 ng/ml)	
B2		Successful cleavage of SLPI was observed at molar ratios of 1:4, 1:8 and 1:10 SLPI to NE
